assay: soluble on expression in E. coli; label from the status in PepcDB or PDB records

Sequence	soluble on expression in E. coli
MGSDKIHHHHHHACKNKTGGPATASSELTDDALMDTVQRRTFLYFWEGAEPNSGLAPERYHVDGVYPQNDANVVTSGGSGFGIMAILAGIDRGYVTREEGLARMERIVSFLEKADRFHGAYPHWWYGDTGKVKPFGQKDNGGDLVETAFLMQGLLAVHQYYINGNEKEKALAARIDQIWKDVDWNWYRNGDQNVLYWHWSPTYGWEMDFPIHGYNECMIMYILAAASPTHGVPAAVYHDGWAQNGAIVSPHKVEGIELHLRYQGTEAGPLFWAQYSFLGLDPVGLKDEYCPSYFHEMRNLTLVNRAYCIRNPKHYKGFGPDCWGLTASYSVDGYAAHSPNEQDDKGVISPTAALSSIVYTPEYSMQVMRHLYNMGDTVFGPFGFYDAFSETDNWYPQRYLAIDQGPIAVMIENYRTGLLWKLFMSHPDVQAGLTKLGFNTNKQDVRQK	not soluble
MGSDKIHHHHHHADDSYLIDGGKANPYYNGNMMQYLESRPDYFKDLVEVIRLSGMEDVFEDEQITFFAPTDWSIRGSFNYLNRIWYRMGHDSIKSFSQIKPEVWREMLSMYIVKDKYLLKDIPQIDTTAIAAYPGQAFLSYGQQPMNMGVVYYDANNVKYAGARQIIYSYVYDFTIGDMKNAYVATSDIQPTNGVVHVLRLTDHAFGFEPYLFATKAINATIETEPDN	not soluble
MGSDKIHHHHHHAFLTLKPVKTPFTMYSSVLGDFVITQLDENKQLHRYDTKGNTYTQQQVDSLLPSLYVRQLTADERFPDTICGKAVSPKDIQLTNFTFKSVPSAINAPQTGLYFLMESMSKRVDLKMPEDAFRFTDKGIEFIRMETNCIDEAKSKLFTDMLVQKGFAFPACYASGNPTTRKDYDEGYLVLDANHKLFHLKCTKGRPYVKAIQLPEGVLPEYVFITEFRSRRTLGYMVDSKHHFYIINSDGSLVKSALPGFDPAKDELTIFGNMFDWTVKLSTDKDDYYYALDATDYSLIKEHAYKDIRRSVPGLSFTSPDDKFVKPRF	not soluble
MGSDKIHHHHHHAGFIFLPKENETASTTVEEVKWLTYDQAVALSKKNPKPIFIDVYTDWCGWCKTMDKNTFSNHKVAAYLNKRFYSVKLNPEKKDTVHYKGVAMTNGALAGKIFHATSYPTTVYLEGDETLLQPIPGYQAPNDLYRIIHYIGENHYKTTTWDDFSKSFNESAE	not soluble
MGSDKIHHHHHHAKKVKGNGDIITKEISVRDYSAIKVGSTAMGYSDSWFSLFSRGGNPSYVFGYTQGESASLRITIDENLYPYINVQVKNEELSISTENGTQLSPTRFKIEGTSKKLEKIKMSGCMDFVLRSALSGDDLEIIATRGSDVKMEQPINVSNCIIEATSGSDIIINDLTTRIIRGRASGGSDLKLTGKAENGEYSASGGSDIKAYDLILNQLECSASGGSDIYTHVTDYIKASASGGSDVHYKGSARSDTSTSGGSDIIKEGN	not soluble
MGSDKIHHHHHHALKKIYPHATNVSWSQQGNYYVASFTQNGFEKEVWMNGNAQWVMTNTDLQTTDQLTPNVYNDFTLSPYAMWTATNVNLIEFPKRTTLYVITVNLNNSSATKQLFYTLNGRLLQTRDVSYINPTLSPGIFEF	not soluble
MGSDKIHHHHHHAPNEEGISVQKMTGFPEGEPGFSLGVSACYAGIYQGELLIAGGCNFPETPAAEGGKKKFYQGIYAADASADSVFVWRKVGQLPVAAAYGVSVSTPRGIVCVGGSNENGSLSTVYRLSLSDDKQAVIVDTLPSLPCTMDNMSGSVVDYTLFVAGGNVNGKPSNGLYCLNLGNPETGWQQLPDFPGAPRVQPVCVGQRKENETLLYLWGGFSGAFDGRSATLSTDGYCYSPSLQQWQPVSTPIGSDSVPVALGGGAGIALTDSLILCTGGVNKDIFLSALQREEMMKAAVTGGNQAAVDSLKSEAKTYMLHPAEWYRFNDRILIYNTRRDKWEEAVRSQDVARAGAALTTGQGQTFFNINGELKPGIRTPEIAKIMID	not soluble
MGSDKIHHHHHHAQDRAQQASELLDRLIAGQGDSVYVHLDDNIRKMLSVEMLNGLFKQLEQQAGKYQSHGEWNTEPINGMTVYYCDVKFERLPLRFLTAFNPDGKVNTIRFVPVPPEKTTPPTTSVQDKIKETDIQVCTGNFKLPGTLTLPKNGKDLPVVILVHGSGASDRDETVGANKPFRDLAYGLAERGIAVIRYDKRTKVYGADSAPAGKEITFDEESVDDALSAIKLARSIPTINPERIYILGHSLGGTLAPRIAQRSDKVPAGIILLAGAARPLEDLFISQVKFLASALPSTKDIEKEIAELQKQVDNVKRLGTDTFDITTPLPMNLSQAYWMLANQYKPLEVVRKLTLPILVLQGERDYQVTMQDFELWKSALAKHPNAIFKSYPRLNHLFQEGEGKSTPLEYSRPSSIPSYVTDDIAAFINRPKPGN	not soluble
MGSDKIHHHHHHAQNRNTSICRLGFTYDISQSKNWGNNKPVIKSIIPYSSAEQAGIKKYDVIEEINGVPVTEVSVDEIPQLLNPAGRNDVLLTISNLSSPSKQVLVKKDCKKSNAITEDQLASAYAMYSLETTNEQEFVCPFKTTVTSDGVDFGNFKTFAFSTIDENNRKLETVINECIENELTKKGLTVDIAKPDLLIQTFYFFDKNPNYLGANKVLVEKEPTYRYNFSHSKMEKFPFLNYAAAEAEAEYLLQFGIRIIDQKDIPGRVLWECEANELLEDSYRLDEYARVHVPLMCMQYPYTKYGRNVPFKVSKKTYNYTGISYDIDKLDQVVDVDRNSPAYAAGIRPRDIIEKIGRHKMDHSAEEFSSAYKRFITNTMQYRDPKTMFTDANGFKYCMFWDVFKYPQIADASQSSDYLPAFSYLYYFAPYINPSGNNACTFNIKRGKTKLEVIIRPTIRSEVTVEIK	not soluble
MGSDKIHHHHHHCQTQVETAPTSDVIKLQQTALASQLGYDIVESLTVEVGPRLAGSPKDIIAVNWAINKLTSLGFDRVYKEPVQVPIWERGEAKAKITFPVEQPLVITALGGSIATPAGGIQAKIARFDSLEALQQAKPEDVQGKIAFIDQKTERHITGEGYGKSVGGRSKGAVVAAQKGAVAIVIRSIGTDHDRMAHTGVMRYQDDVPKIPAAAMSNPDADLVDALLKRNPDALLELQMSPKNAGFNTSYNVIAEVTGSSKPNEIVLIGAHLDSWDEGTGAIDDGAGVAIVTAAAKHIQDLLVKPARTVRVVLYAAEEIGLVGGKAYAETHKAELPLHYIAAESDFGAGRIYQIDTKVNESAFAEVQHALSPMSFNGVALGNNQASGGPDVSMLPALGVPVASLRQDGHDYFDYHHTPNDTLDKIDPAALAQNVAAYAQFAYIMANSTPTLTPLVIQSEK	not soluble
MGSDKIHHHHHHDNLQAPGSIKDEEKLRSWLAGYEAEAIKVLREVALSGWRYFNDASPSLKLALDEAENVLTMFVRSTSMQAKQFDMASVTDEKVMRQLGYVSFEGMSALAPSRFADYSQAQAALNRDSKDSTICDKDVPPPCALQKIDMDSIFRNEKDASRLQHLWVSYVTAIAKSKPSYNNIITISNEGAKLNGFANGGAMWRSAFDMSSKVHKAEFDLNKQIDKIYSTIQPFYQLLHAYMRRQLAGIYSNPVGLSKDGPIPAHLFGSLDGGDWSAHYEQTKPFEEESETPEAMLSAFNTQNYTTKKMFVTAYRYFKSAGFPHLPKSYWTSSIFARVWSKDMICHPAAALDMRAPNDFRVKACAQLGEPDFEQAHSLLVQTYYQYLYKDQSLLFREQASPVITDAIANAFAHLSTNPHYLYSQKLVPSEHLDIKDSVIINKLYKESLESFTKLPFTIAADNWRYELFDGTVPKNKLNDRWWEIRNKYEGVRSPQPYNTSNLDALIHNSVSQVHSPATRTLISYVLKFQILKALCQRELFWLSEGCILSEDTTEKLRETMKLGSSITWLKALEMISGKGELDAQPLLEYYEPLINWLRNTNEIDQVVVGWDGEGTP	not soluble
MGSDKIHHHHHHDNNVVVLNGSGRSGSNGYAFYKWLLINHPEFNVTLVEPWPSSHLKWETWQKIGAARYVITTHQPFKVRKHQINVQLWHGVPLKRMGIMANNTRYKDNKRNEKLWHKNADIVASSSDLYETLMSACMAIESKKYQKLGFPRLDLLSKPVISKKELLKDLFDQEDEQAAIGIYMPTFRYELEDKSIMQKIKEGNFFAFADFDGEKLNKELKKRHQYLIVKLHPYEMRLFDNFKSQYSNISFLNNDYLFDHNYDLYELLGDTDFLMTDFSSIYFDYLHLNKPIVFVTNFLKQYEKTRGLLMGPYSEITPGISVNSEQELINNLDHLDNQQIVNRRIYWLNLTNQVHGDSYCENVFKYMTQEYRG	not soluble
MGSDKIHHHHHHENLYFQGMTQLELLLERIIDRVNVNLRHQKFDVGDYVRRQTPHLHYSKFYAFYGLSADDPVHFHFKNSSLAGSYLLGRVNVLHSALYKSDIRGDELKRKGQHFVCDGKMIPLHDDEVITIKDSFLNKTLVHSNSHDPESPEEFTIRNTVAMPYANIHGSLTEGSFIGSFATVDLSTIHNSVVRYFSYVQTGELVGKCVEPGQIWIKSGDELEFHYSFDKAILDKYISQEAGSCPTGVLMEFVEVRQEDFEEVFASGHMASGAGSASGASVSGYAVIKGDTVIGENVLVSQRAYLDNAWMGKGSNAQENCYIINSRLERNCVTAHGGKIINAHLGDMIFTGFNSFLQGSESSPLKIGDGCVVMPHTIIDLEEPLEIPAGHLVWGYIRNKADLAAHSISFEEFAKVDGEVTMGRMTFRGKGGPFLDSFKKRIKRILSENGAFFDGSEGTGHAQKGKNFTFNIIQPYQDGDPRGMYPTILIQPNNGS	soluble
MGSDKIHHHHHHESDLEQVTYSSENAIPSTLSSLNDNYILESKNASQEAFTLTWSHPDLGYQASVINSLEMDVKDKNFANKVILASSKTDVSHTITVSDLNSKIMALLKVYEMETAPIGIEFRISSSISAAADTLYSNIVSTTITPYEGEPEYPAITLRGSYNGWDFTKSQKVYSVNSDNIYAAMVYFDGKAADGWKFCGTEDWSTDNWGAPESMTPEQSPVTLVSGNGGDIKAYSKNSYYLEFNNTTGELKVSKPHNSWGIVGDHNSWGSGDTMMTLETETDENNKFQYYLKATLDMSAGNKWKIRPEEKWEDDIAPGAVEGEFEDAGDGNFKVSEAGNYTIKWYFNKVTPKIIVVKNK	not soluble
MGSDKIHHHHHHFEDLKPVIADSTKVTQAHTYKDINKLDIDVKDVNVEFREGKNYSVRYEGAKSSSPTVKKSGNQLQIKGRLSSHSIRFNGMSMYDDYYRNSDRNKMIITLPKDSKLDELNLKLSDSLLSQVNMTGIEADRVKASIHDTKLDLRDANFGNVELSAGDSDISMTNTVLSNGKLDLNDTDVRLDGGSLMQVAMNITEGDVDYNNLSIQGGNLRNNDGDIKMSNTQIQGGYKIDDTDGDILVSRVTVDGYRVQSNDGDVRLFEQTTSNGNVLEKNSNSDNVLDIISNDGDITVN	not soluble
MGSDKIHHHHHHGDIYNGTTMGVTFATGTQSVSFPSTGYEGFDVEVLRAKSSEATTINLSATLVVGDKEQELPASITVPSSVSFAAGEFKTNIHVTVGDITPGQNYKVKISLPEEMVTIDQTSDKVITVYRDYTFSSLGTGTFKSAAMAEEGEDFTTWEVEVQKADQISWYKAMNLYEKGYNIVFKVNEANEVTVESQPAWKHASYGEVFVSGKGALEDGVITVKLSHDVPNVGGFGEFKEILYLPAK	not soluble
MGSDKIHHHHHHGEYNKLLKSTDYEYKYEAAKNYFAKGQYNRSATLLNELITILKGTDKAEESLYMLGMSYYNQKDYQTAAQTFITYFNTYPRGTFTELARFHAGKSLFLDTPEPRLDQSSTYQAIQQLQMFMEYFPNSTKKQEAQDMIFALQDKLVLKELYSAKLYYNLGNYLGNNYESCVITAQNALKDYPYTDYREELSILILRARHEMAIYSVEDKKMDRYRETIDEYYAFKNEFPESKYLKEAEKIFNESQKVIKD	not soluble

— the DeepSol protein solubility set
